In general, EC50 refers to the concentration needed to bring the measured effect to its halfway point. For orientation: EC50 (read off the curve) means the concentration giving half of the maximal effect.

Consider 9 molecules from patent US20240132603A1 (HARBOUR BIOMED US, published 2024).

In assay [1] the target is T1, human CCR8 (human, UniProt P51685 1-355).
T1 construct: whole, on cells; construct used for the overexpressing cell lines is not described; also called hCCR8
Kind of assay: FACS on CHO-K1 cells overexpressing human CCR8. On the procedure: (§1) Cells overexpressing human CCR8 were digested with pancreatin, counted and resuspended to a cell density of 1E6 cells/mL. The cell suspension was added to a 96-well V-bottom plate at 100 μL/well and centrifuged at 300 g for 5 min, and the supernatant was discarded. The anti-CCR8 antibodies provided herein was used as a primary antibody and diluted in a 5-fold gradient with an FACS buffer (DPBS containing 2% FBS) from 200 nM. The diluted primary antibody was added at 100 μL/well to resuspend the cells, and the mixture was incubated at 4° C. for 1 h. The plate was washed twice with DPBS and centrifuged at 300×g for 5 min, and the supernatant was discarded. The secondary antibody diluted in a 1:1000 ratio with an FACS buffer was added at 100 μL/well to suspend the cells, and the mixture was incubated at 4° C. for 40 min. The plate was washed twice with DPBS and centrifuged at 300×g for 5 min, and the supernatant was discarded. DPBS was added at 200 μL/well to suspend the cells, and the mixture was loaded on an FACS machine for analysis.

The target in assay [2] is T1, human CCR8. Kind of assay: cell-based or functional assay.
Assay [3] addresses T2, cynomolgus monkey CCR8 (cynomolgus monkey, UniProt G7NYJ2 1-355).
T2 construct: whole, on cells; also called CynoCCR8
Kind of assay: FACS, CHO-K1-CynoCCR8 cells. On the procedure: as §1, with “cynomolgus monkey CCR8, CHO-K1-CynoCCR8,” for “human CCR8”
(In general: In flow cytometry, cells or beads pass a laser one at a time.)

In assay [4] the target is T1, human CCR8. Kind of assay: FACS, CHO-K1-hCCR8 cells. An outline of the steps: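 Readout: FACS signal of cell-bound antibody. Staining used a 200 nM top concentration with 5-fold dilutions in 2% FBS buffer, 1 h at 4 °C, then secondary antibody for 40 min.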
The target of assay [5] is T1, human CCR8. Kind of assay: FACS, HEK293-hCCR8 cells. On the procedure:
as §1

Assay [6] has as its target T1, human CCR8. Description: FACS, Baf3-hCCR8 cells. How it is done:
as §1

Assay [7] addresses T2, cynomolgus monkey CCR8. Description: FACS, CHO-K1-CynoCCR8 cells. On the procedure:
as §1, with “cynomolgus monkey CCR8, CHO-K1-CynoCCR8,” for “human CCR8”
This is another data set of the same source.

For assay [8], the target named is T2, cynomolgus monkey CCR8. Description: FACS, CHO-K1-CynoCCR8 cells. On the procedure:
as §1, with “cynomolgus monkey CCR8, CHO-K1-CynoCCR8,” for “human CCR8”
The source holds these as a separate data set.

Assay [9] deals with T1, human CCR8. Kind of assay: cell-based or functional assay. The source holds these as a separate data set.
Assay [10] has as its target T1, human CCR8. Kind of assay: FACS, CHO-K1-hCCR8 cells. On the procedure: as §1
This is another data set of the same source.

Assay [11] addresses T1, human CCR8. Description: FACS, CHO-K1-hCCR8 cells. How it is done:
as §1
The source holds these as a separate data set.

The target in assay [12] is T1, human CCR8. Description: FACS competition on HEK293-hCCR8 cells against a biotin-labelled anti-CCR8 antibody at its EC80; the labelled antibody of this panel is not named on the sheet. On the procedure:
(§2) The antibody was conjugated with Sulfo-NHS-LC-Biotin at a molar ratio of 5:1 (1 mol antibody was added to 5 mol Sulfo-NHS-LC-Biotin) with reference to the product instructions (ThermoFisher, Cat No. A39257) and incubated on ice for 2 h. The coupled antibody was purified with a Zeba desalting column (ThermoFisher, Cat No. 89882). Cells overexpressing human CCR8, HEK293-hCCR8, were added to a V-bottom 96-well plate at a density of 1E5 cells/well and centrifuged at 300 g for 5 min, and the supernatant was discarded. The competitive antibody was serially diluted in a ratio of 1:10 from 200 nM to obtain 8 concentration points. The Biotin-antibody and the competition antibody were mixed in a 1:1 ratio on an HEK293 cell line overexpressing human CCR8 by the binding EC₈₀ concentration. The cells in the 96-well plate were resuspended and incubated at 4° C. for 1 h. The plate was washed twice with DPBS at 200 μL/well. The secondary antibody diluted in a 1:1000 ratio was added at 100 μL/well, and the mixture was incubated at 4° C. for 40 min. The plate was washed twice with DPBS at 200 μL/well. Finally, DPBS was […] at 200 μL/well to suspend the cells, and the mixture was loaded on an FACS machine for analysis.

Assay [13] has as its target T1, human CCR8. The description is as above. How it is done:
as §2
This is another data set of the same source.

The target in assay [14] is T1, human CCR8. Description: FACS, HEK293-hCCR8 cells. On the procedure:
as §1
The source holds these as a separate data set.

The target in assay [15] is T1, human CCR8. Description: FACS, CHO-K1-hCCR8 cells. On the procedure:
as §1
This is another data set of the same source.

Assay [16] deals with T1, human CCR8. Kind of assay: FACS competition on HEK293-hCCR8 cells against a biotin-labelled anti-CCR8 antibody at its EC80; the labelled antibody of this panel is not named on the sheet. How it is done:
as §2
The source holds these as a separate data set.

The target of assay [17] is T2, cynomolgus monkey CCR8. Description: FACS, CHO-K1-CynoCCR8 cells. On the procedure: as §1, with “cynomolgus monkey CCR8, CHO-K1-CynoCCR8,” for “human CCR8”
The source holds these as a separate data set.

Assay [18] concerns the target T1, human CCR8. Kind of assay: FACS competition on HEK293-hCCR8 cells against a biotin-labelled anti-CCR8 antibody at its EC80; the labelled antibody of this panel is not named on the sheet. How it is done: as §2
This is another data set of the same source.

Assay [19] concerns the target T1, human CCR8. The description is as above. On the procedure:
as §2
The source holds these as a separate data set.

Numbering of substitutions follows the chain as printed. Names and notes keep the numbering of the source. Read-outs that look alike come from different tables or passages of the source.

T1 sequence (P51685 whole entry): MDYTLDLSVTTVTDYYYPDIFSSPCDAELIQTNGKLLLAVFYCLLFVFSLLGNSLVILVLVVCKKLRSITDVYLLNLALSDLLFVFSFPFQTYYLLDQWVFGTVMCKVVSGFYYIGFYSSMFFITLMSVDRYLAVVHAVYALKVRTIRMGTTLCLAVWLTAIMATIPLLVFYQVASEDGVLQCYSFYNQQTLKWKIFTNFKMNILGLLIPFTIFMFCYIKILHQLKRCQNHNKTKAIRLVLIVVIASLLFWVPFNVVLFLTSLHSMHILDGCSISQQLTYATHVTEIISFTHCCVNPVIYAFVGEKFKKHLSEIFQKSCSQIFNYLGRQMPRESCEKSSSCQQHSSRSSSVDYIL
T2 sequence (G7NYJ2 entry or part of it): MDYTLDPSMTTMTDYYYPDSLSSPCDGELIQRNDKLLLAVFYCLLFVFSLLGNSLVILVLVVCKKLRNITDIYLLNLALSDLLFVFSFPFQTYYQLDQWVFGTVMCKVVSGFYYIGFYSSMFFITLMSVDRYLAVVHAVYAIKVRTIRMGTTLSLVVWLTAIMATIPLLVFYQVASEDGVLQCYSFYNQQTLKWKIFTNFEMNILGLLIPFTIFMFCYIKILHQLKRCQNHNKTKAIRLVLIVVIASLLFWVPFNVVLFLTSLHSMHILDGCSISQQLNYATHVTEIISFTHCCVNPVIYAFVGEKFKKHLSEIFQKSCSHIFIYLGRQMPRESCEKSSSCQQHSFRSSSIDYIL

B1: PR004970 (antibody, human IgG1, kappa, V domains shown)
VH: EVQLVESGGGLVQPGGSLRLSCAASGFTFSSYWMSWVPQAPGKGLEWVANIKQDGSAKFYVDSVKGRFTISRDNAKNSLYLQMNSLRAEDTAVYYCARSWGFAYWGQGTLVTVSS
VL: DIQMTQSPSSLSASVGDRVTITCRASQGISNYLAWYQQKPGKVPKLLIYAASTLQSGVPSRFSGSGSGTDFTLTISSLQPEDVATYYCQKYNSAPWTFGQGTKVEIKR
notes: fully human, from single cell clone screening
Consider B1, for which the binding result with human CCR8 [1] is “binds”.

B2: PR006275AF (antibody, human IgG1, kappa)
heavy: not shown
light: DIVMTQSPLSLPVTLGQPASISCRSSKSLLHSNAKIYLYWFQQRPGQSPRLLIYRMSNLASGVPDRFSGSGSGTDFTLKISRVEAEDVGVYYCMQHLEYPLTFGQGTKLEIKRTVAAPSVFIFPPSDEQLKSGTASVVCLLNNFYPREAKVQWKVDNALQSGNSQESVTEQDSKDSTYSLSSTLTLSKADYEKHKVYACEVTHQGLSSPVTKSFNRGEC
modifications: afucosylated (AF) Fc glycan, produced with 2-fluoro peracetylated fucose
notes: also called PR00PR006275AF; R00PR006275AF
As for B2, the “EC50, ADCC reporter gene activity (Jurkat/FcγR III-NFAT effector cells)” value (“EC50, ADCC reporter gene activity” for short) with human CCR8 [2] was found to be 2.6 nM. For the same molecule, the results for the EC50 in the assay with cynomolgus monkey CCR8 [3] and with human CCR8 [4] were 0.51 nM and 0.4 nM, respectively.

B3: PR006276AF (antibody, human IgG1, kappa)
heavy: not shown
light: B2 light
modifications: afucosylated (AF) Fc glycan, produced with 2-fluoro peracetylated fucose
On to B3, for which, in the assay with human CCR8 [2], the “EC50, ADCC reporter gene activity” value is 1.66 nM. In addition, the EC50 with cynomolgus monkey CCR8 [3] worked out at 0.5 nM; in the assay with human CCR8 [4], 0.39 nM.

B4: PR004128 (antibody, human IgG1, kappa)
heavy: not shown
light: DIVMTQAAPSVPVTPGESVSISCRSSKSLLHSNGKIYLYWFLQRPGQSPQLLIYRMSNLASGVPDRFSGSGSGTAFTLRISRVEAEDVGVYYCMQHLEYPLTFGAGTKLEIKRTVAAPSVFIFPPSDEQLKSGTASVVCLLNNFYPREAKVQWKVDNALQSGNSQESVTEQDSKDSTYSLSSTLTLSKADYEKHKVYACEVTHQGLSSPVTKSFNRGEC
notes: chimeric, human IgG1 constant region; also called RP004128; PRO4128
On to B4, for which the EC50 came out at 0.87 nM with human CCR8 [5]; 0.14 nM in the assay with human CCR8 [6]; 4.73 nM with cynomolgus monkey CCR8 [7]; 7.39 nM in the assay with cynomolgus monkey CCR8 [8]; 0.83 nM with cynomolgus monkey CCR8 [3]; 0.91 nM with human CCR8 [10]. Moreover, the EC50 with human CCR8 [11] was 0.55 nM; in the assay with human CCR8 [4] it was 0.42 nM; in the assay with human CCR8 [14] it was 4.53 nM; with human CCR8 [15] it was 2.54 nM; in the assay with cynomolgus monkey CCR8 [17] it was 2.26 nM. For the same molecule, in the assay with human CCR8 [9], the “Bottom %, blocking of CCL1-stimulated calcium flux” value is 7%. Besides, the “IC50(nM), blocking of CCL1-stimulated calcium flux” value with human CCR8 [9] was 1.51 nM. The “IC50 (read off the curve)” value in the assay with human CCR8 [12] is 1 to 2 nM; with human CCR8 [13] it was roughly 2 nM; in the assay with human CCR8 [16] it was roughly 3 nM; with human CCR8 [18] it was roughly 2 nM; in the assay with human CCR8 [19], roughly 2 nM.

B5: PR005171 (antibody, human IgG1, kappa, V domains shown)
VH: EVQLVESGGGLVQPKGSLKLSCAASGFTFNTYAMNWVRQAPGKGLEWVARIRSKSNNYATYYADSVKDRFTISRDDSQSMLYLQMNNLKTEDTAMYYCVRGKENGNYYAMDFWGQGTSVTVSA
VL: DIVMTQAAPSVPVTPGESVSISCRSSKSLLHSNGKIYLYWFLQRPGQSPQLLIYRMSNLASGVPDRFSGSGSGTAFTLRISRVEAEDVGVYYCMQHLEYPMTFGAGTKLEIKR
notes: heavy chain entry as PR004128
As for B5, in the assay with human CCR8 [1], the “EC50 (read off the curve)” value is roughly 1 nM.

B6: PR004125 (antibody, human IgG1, kappa)
heavy: not shown
light: B4 light with K35N, I36T, I111M
notes: chimeric, human IgG1 constant region
Turning to B6, the concentration giving a half-maximal response (EC50) came out at 0.72 nM with human CCR8 [5]; 0.21 nM in the assay with human CCR8 [6]; 2.44 nM in the assay with cynomolgus monkey CCR8 [8]; 1.16 nM with cynomolgus monkey CCR8 [3]; 0.5 nM with human CCR8 [4]; 0.66 nM in the assay with human CCR8 [14]. Also, the “EC50, ADCC reporter gene activity” value in the assay with human CCR8 [2] is 0.59 nM. In addition, the “Bottom %, blocking of CCL1-stimulated calcium flux” value with human CCR8 [9] came to 23%. For the same molecule, the “IC50(nM), blocking of CCL1-stimulated calcium flux” value with human CCR8 [9] was 1.16 nM. Besides, the “IC50 (read off the curve)” value in the assay with human CCR8 [12] is 1 to 2 nM; with human CCR8 [13], roughly 2 nM; with human CCR8 [16] it was roughly 3 nM; in the assay with human CCR8 [18], roughly 2 nM; with human CCR8 [19] it was roughly 2 nM.

B7: PR004250 (antibody, human IgG1, kappa)
heavy: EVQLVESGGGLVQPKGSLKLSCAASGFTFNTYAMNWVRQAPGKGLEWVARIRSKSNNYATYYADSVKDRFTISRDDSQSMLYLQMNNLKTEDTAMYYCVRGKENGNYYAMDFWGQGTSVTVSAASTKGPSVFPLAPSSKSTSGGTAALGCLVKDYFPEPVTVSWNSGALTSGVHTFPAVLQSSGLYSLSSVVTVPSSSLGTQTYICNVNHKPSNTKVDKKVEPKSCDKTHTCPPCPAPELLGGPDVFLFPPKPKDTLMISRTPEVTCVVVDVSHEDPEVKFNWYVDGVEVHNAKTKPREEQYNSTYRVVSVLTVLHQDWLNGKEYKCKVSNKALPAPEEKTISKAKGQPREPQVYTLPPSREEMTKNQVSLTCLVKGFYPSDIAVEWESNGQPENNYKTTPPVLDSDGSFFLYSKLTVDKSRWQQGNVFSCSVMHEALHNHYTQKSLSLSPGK
light: B4 light with K35N, I36T, I111M
notes: PR004125 with S239D and I332E (DE) in the IgG1 constant region
Turning to B7, the EC50 with cynomolgus monkey CCR8 [8] turned out to be 3.5 nM; in the assay with human CCR8 [14] it was 1.66 nM. In addition, the “EC50, ADCC reporter gene activity” value in the assay with human CCR8 [2] stood at 0.04 nM.

B8: PR005170 (antibody, human IgG1, kappa, V domains shown)
VH: B5 VH
VL: B5 VL with M101I
notes: heavy chain entry as PR004128
Take B8: the “EC50 (read off the curve)” value in the assay with human CCR8 [1] is roughly 1 nM.

B9: PR005172 (antibody, human IgG1, kappa, V domains shown)
VH: B5 VH
VL: B5 VL with M101V
notes: heavy chain entry as PR004128
As to B9, the “EC50 (read off the curve)” value with human CCR8 [1] was roughly 2 nM.
